The record followed here is the supplement of paper PMC9112550, “Optimization of the antimicrobial peptide Bac7 by deep mutational scanning” (BMC Biology, 2022).
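Note: peptides expressed intracellularly from a pBAD plasmid library in pooled LB shake-flask culture, induced with 0.3% L-arabinose, DNA abundance read by NGS, three biological replicates, DESeq2 with apeglm shrinkage.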

The data set deals with Escherichia coli TOP10. Kind of data set: shrunken log2 fold change of peptide-encoding DNA abundance (4.5 h post-induction vs induction); higher = less antimicrobial activity (less host growth inhibition). The settings on record: time post-induction: 4.5 h; library: site-saturation at positions 5, 18, 19, 20.
On to RRIRKRPPRLPRPRPRPVGGPRP, for which the “shrunken log2 fold change” value came out at 0.544.
With RRIRARPPRLPRPRPRPSHWPRP the figure was -0.175.
Take RRIRDRPPRLPRPRPRPCTYPRP: the “shrunken log2 fold change” value is -0.0116.
Next, RRIRYRPPRLPRPRPRPCHLPRP: -0.019.
Next, RRIRWRPPRLPRPRPRPVKPPRP: 0.539.
Next, RRIRRRPPRLPRPRPRPMGMPRP: 0.747.
As to RRIRWRPPRLPRPRPRPAYLPRP, the “shrunken log2 fold change” value is -0.108.
For RRIRERPPRLPRPRPRPNQCPRP, the “shrunken log2 fold change” value was -0.00674.
Next, RRIRGRPPRLPRPRPRPSHQPRP: -0.0609; RRIRHRPPRLPRPRPRPVRRPRP: 0.241.
Regarding RRIRQRPPRLPRPRPRPHVVPRP, the “shrunken log2 fold change” value was -0.086.
Next, RRIRRRPPRLPRPRPRPFCSPRP: -0.0439; RRIRKRPPRLPRPRPRPEQHPRP: 0.586; RRIRNRPPRLPRPRPRPVFSPRP: -0.192.
With RRIRKRPPRLPRPRPRPRADPRP the figure was 0.511.
Consider RRIRHRPPRLPRPRPRPEQVPRP, for which the “shrunken log2 fold change” value was -0.0321.
Take RRIRKRPPRLPRPRPRPILQPRP: the “shrunken log2 fold change” value was 0.0319.
Next, RRIRPRPPRLPRPRPRPWFWPRP: 0.281.
In the case of RRIRYRPPRLPRPRPRPQAQPRP, the “shrunken log2 fold change” value came out at 0.0442.
Next, RRIRTRPPRLPRPRPRPMFWPRP: 0.285; RRIRARPPRLPRPRPRPWYSPRP: -0.43.
Next, RRIRDRPPRLPRPRPRPQTRPRP: 0.138; RRIRQRPPRLPRPRPRPSFYPRP: -0.653.
Next, RRIRMRPPRLPRPRPRPTEIPRP: -0.0223; RRIRGRPPRLPRPRPRPLAQPRP: 0.888; RRIRIRPPRLPRPRPRPETCPRP: 0.00626.
On to RRIRKRPPRLPRPRPRPFEWPRP, for which the “shrunken log2 fold change” value was -0.0618.
With RRIRLRPPRLPRPRPRPIPVPRP the figure was -0.0985; with RRIRMRPPRLPRPRPRPGALPRP, 0.954.
Consider RRIRMRPPRLPRPRPRPNKVPRP, for which the “shrunken log2 fold change” value stood at 0.0418.
Next, RRIRNRPPRLPRPRPRPVVQPRP: 0.0488; RRIRVRPPRLPRPRPRPCDSPRP: -0.0445; RRIRIRPPRLPRPRPRPVFDPRP: -0.371.
Regarding RRIRLRPPRLPRPRPRPIYNPRP, the “shrunken log2 fold change” value is -0.989.
Take RRIRMRPPRLPRPRPRPLLFPRP: the “shrunken log2 fold change” value worked out at 0.908.
With RRIRYRPPRLPRPRPRPCMHPRP the figure was -0.351.
In the case of RRIRNRPPRLPRPRPRPQWCPRP, the “shrunken log2 fold change” value was -0.0662.
Next, RRIRVRPPRLPRPRPRPPWLPRP: 0.365; RRIRLRPPRLPRPRPRPLKGPRP: -0.0279.
Next, RRIRQRPPRLPRPRPRPCSFPRP: -0.0439; RRIRFRPPRLPRPRPRPNVLPRP: -0.323; RRIRLRPPRLPRPRPRPGEAPRP: 0.214.
With RRIRGRPPRLPRPRPRPIYDPRP the figure was -0.259.
As for RRIRNRPPRLPRPRPRPWCNPRP, the “shrunken log2 fold change” value is -0.507.
Next, RRIRMRPPRLPRPRPRPGEFPRP: 0.00408; RRIRLRPPRLPRPRPRPMDAPRP: 0.282.
Next, RRIRIRPPRLPRPRPRPTEYPRP: -0.251.
With RRIRCRPPRLPRPRPRPGPHPRP the figure was 0.0758; with RRIRWRPPRLPRPRPRPYTWPRP, -0.397; with RRIRPRPPRLPRPRPRPDPMPRP, 0.4.
For the sequence RRIRARPPRLPRPRPRPTATPRP, the “shrunken log2 fold change” value turned out to be 1.2.
As for RRIRTRPPRLPRPRPRPAQGPRP, the “shrunken log2 fold change” value was found to be 0.228.
Next, RRIRCRPPRLPRPRPRPVACPRP: -0.0888; RRIRFRPPRLPRPRPRPSQPPRP: -0.0776.
Next, RRIRQRPPRLPRPRPRPIHRPRP: -0.0654; RRIRHRPPRLPRPRPRPEFEPRP: 0.0692; RRIRHRPPRLPRPRPRPRSNPRP: -0.253.
RRIRTRPPRLPRPRPRPQGMPRP: the “shrunken log2 fold change” value came to 0.0427.
Next, RRIRARPPRLPRPRPRPSPSPRP: 0.52; RRIRWRPPRLPRPRPRPQRYPRP: 0.0066.
Next, RRIRARPPRLPRPRPRPDGFPRP: 0.135.
With RRIRYRPPRLPRPRPRPEYMPRP the figure was -0.271.
Turning to RRIRDRPPRLPRPRPRPRTGPRP, the “shrunken log2 fold change” value is 0.0132.
With RRIRERPPRLPRPRPRPVDQPRP the figure was 0.0107; with RRIRRRPPRLPRPRPRPLKFPRP, -0.149; with RRIRDRPPRLPRPRPRPNETPRP, -0.023.
With RRIRCRPPRLPRPRPRPKYAPRP the figure was -0.0494.
Next, RRIRCRPPRLPRPRPRPPCAPRP: 0.354; RRIRQRPPRLPRPRPRPMCTPRP: -0.173.
As to RRIRARPPRLPRPRPRPDMAPRP, the “shrunken log2 fold change” value was found to be 0.265.
For the sequence RRIRWRPPRLPRPRPRPCGFPRP, the “shrunken log2 fold change” value came to 0.395.
With RRIRKRPPRLPRPRPRPSSMPRP the figure was -0.0241.
Next, RRIRNRPPRLPRPRPRPMTKPRP: 0.116; RRIRQRPPRLPRPRPRPNSIPRP: -0.21; RRIRVRPPRLPRPRPRPTEDPRP: -0.113.
With RRIRKRPPRLPRPRPRPTWQPRP the figure was 0.58; with RRIRTRPPRLPRPRPRPPWDPRP, 0.294.
As to RRIRDRPPRLPRPRPRPNKNPRP, the “shrunken log2 fold change” value was -0.343.
Next, RRIRYRPPRLPRPRPRPNWHPRP: -0.575; RRIRQRPPRLPRPRPRPSVDPRP: -0.00902.
With RRIRIRPPRLPRPRPRPASVPRP the figure was -0.102.
Next, RRIRDRPPRLPRPRPRPSYQPRP: -0.494; RRIRDRPPRLPRPRPRPALPPRP: 0.328; RRIRSRPPRLPRPRPRPHGKPRP: -0.18.
On to RRIRSRPPRLPRPRPRPWCCPRP, for which the “shrunken log2 fold change” value is -0.544.
With RRIRGRPPRLPRPRPRPCCKPRP the figure was -0.108; with RRIRPRPPRLPRPRPRPRAHPRP, 0.345; with RRIRRRPPRLPRPRPRPEEPPRP, 0.24.
Take RRIRTRPPRLPRPRPRPMACPRP: the “shrunken log2 fold change” value is 0.0855.
Next, RRIRNRPPRLPRPRPRPQSKPRP: -0.301; RRIRTRPPRLPRPRPRPYPQPRP: -0.14.
